Results on ten sequences are retold here after the Immune Epitope Database (IEDB).

The test concerns the target HLA-A*02:01. Put plainly: IEDB peptide-MHC binding, purified MHC/competitive/radioactivity; ≥ and ≤ were set here for values at or beyond the usual limits of such assays. The settings on record: source organism: Toxoplasma gondii GT1.
For ALAALAPSLEV, the 50% inhibitory concentration (IC50) (as a rule, the concentration at which inhibition is half-maximal) is 1000 nM.
For the sequence ALDINLPNV, the IC50 worked out at 500 nM.
The same measure for FVLELEPEWTV: 10 nM.
The result for GLAETEVPV reads 500 nM.
The same measure for HLMDEAVEV: 500 nM.
In the case of LLSDLSVRL, the concentration for half-maximal inhibition (IC50) was determined as 500 nM.
The same measure for MLYAGAPTTV: 100 nM; for VMSELEFYL: 100 nM; for YLFKEGVIVV: 500 nM.
The same measure for YLSPIASPLL: 100 nM.
